± gives the standard deviation of the averaged measurements.
Test: total protein half-life in vivo (active degradation + dilution); higher = more stable protein
[1] = E. coli NCM3722 delta-clpP delta-lon delta-hslV, growth: N-lim chemostat, doubling time 6 h
[2] = E. coli NCM3722 delta-clpP, growth: N-lim chemostat, doubling time 6 h
[3] = E. coli NCM3722 delta-hslV, growth: N-lim chemostat, doubling time 6 h
[4] = E. coli NCM3722 delta-lon, growth: N-lim chemostat, doubling time 6 h
[5] = E. coli NCM3722 delta-smpB, growth: N-lim chemostat, doubling time 6 h
[6] = wild type E. coli NCM3722, growth: C-lim chemostat, doubling time 3 h
[7] = wild type E. coli NCM3722, growth: C-lim chemostat, doubling time 6 h
[8] = wild type E. coli NCM3722, growth: C-lim chemostat, doubling time 12 h
[9] = wild type E. coli NCM3722, growth: N-lim chemostat, doubling time 6 h
[10] = wild type E. coli NCM3722, growth: N-lim chemostat, doubling time 12 h
[11] = wild type E. coli NCM3722, growth: P-lim chemostat, doubling time 6 h
[12] = wild type E. coli NCM3722, growth: P-lim chemostat, doubling time 12 h

Row | Substance | total protein half-life in vivo [1] [h] | total protein half-life in vivo [2] [h] | total protein half-life in vivo [3] [h] | total protein half-life in vivo [4] [h] | total protein half-life in vivo [5] [h] | total protein half-life in vivo [6] [h] | total protein half-life in vivo [7] [h] | total protein half-life in vivo [8] [h] | total protein half-life in vivo [9] [h] | total protein half-life in vivo [10] [h] | total protein half-life in vivo [11] [h] | total protein half-life in vivo [12] [h]
1 | MSVMFDPDTAIYPFPPKPTPLSIDEKAYYREKIKRLLKERNAVMVAHYYTDPEIQQLAEETGGCISDSLEMARFGAKHPASTLLVAGVRFMGETAKILSPEKTILMPTLQAECSLDLGCPVEEFNAFCDAHPDRTVVVYANTSAAVKARADWVVTSSIAVELIDHLDSLGEKIIWAPDKHLGRYVQKQTGGDILCWQGACIVHDEFKTQALTRLQEEYPDAAILVHPESPQAIVDMADAVGSTSQLIAAAKTLPHQRLIVATDRGIFYKMQQAVPDKELLEAPTAGEGATCRSCAHCPWMAMNGLQAIAEALEQEGSNHEVHVDERLRERALVPLNRMLDFAATLRG | 3.98 ± 0.16 | 1.78 ± 0.25 | 0.977 ± 0.24 | 1.1 ± 0.098 | 1.08 ± 0.25 | 1.14 ± 0.026 | 1.39 ± 0.083 | 1.8 ± 0.44 | 0.926 ± 0.058 | 1.03 ± 0.097 | 1.26 | 2.48 ± 0.81
2 | MPFKPLVTAGIESLLNTFLYRSPALKTARSRLLGKVLRVEVKGFSTSLILVFSERQVDVLGEWAGDADCTVIAYASVLPKLRDRQQLTALIRSGELEVQGDIQVVQNFVALADLAEFDPAELLAPYTGDIAAEGISKAMRGGAKFLHHGIKRQQRYVAEAITEEWRMAPGPLEVAWFAEETAAVERAVDALTKRLEKLEAK [P0ADP7] | 5.27 ± 0.14 | – | – | 4.977 ± 0.043 | 4.88 ± 0.14 | 2.77 ± 0.21 | 4.84 ± 0.24 | 7.62 ± 0.27 | 4.76 ± 0.091 | 8.56 ± 0.1 | 4.93 ± 0.25 | 8.919 ± 0.012
3 | MTSSLPCGQTSLLLQMTERLALSDAHFRRISQLIYQRAGIVLADHKRDMVYNRLVRRLRSLGLTDFGHYLNLLESNQHSGEWQAFINSLTTNLTAFFREAHHFPLLADHARRRSGEYRVWSAAASTGEEPYSIAMTLADTLGTAPGRWKVFASDIDTEVLEKARSGIYRHEELKNLTPQQLQRYFMRGTGPHEGLVRVRQELANYVDFAPLNLLAKQYTVPGPFDAIFCRNVMIYFDQTTQQEILRRFVPLLKPDGLLFAGHSENFSHLERRFTLRGQTVYALSKD | – | 6.56 | – | – | – | 1.34 | – | 3.42 | – | – | – | –
4 | P0ADE2 | 1.56 | – | – | – | – | – | 0.174 | – | – | – | 0.104 | 0.888 ± 0.58
5 | MSKPPLFFIVIIGLIVVAASFRFMQQRREKADNDMAPLQQKLVVVSNKREKPINDRRSRQQEVTPAGTSIRYEASFKPQSGGMEQTFRLDAQQYHALTVGDKGTLSYKGTRFVSFVGEQ | – | 6.5 | 6.4 ± 0.69 | 5.45 ± 0.15 | 5.65 ± 0.38 | 3.61 ± 0.1 | 6.11 ± 0.42 | 11.6 ± 0.63 | 5.71 ± 0.065 | 11.3 ± 0.54 | 5.66 ± 0.5 | 11.5 ± 0.14
6 | MGKLTGKTALITGALQGIGEGIARTFARHGANLILLDISPEIEKLADELCGRGHRCTAVVADVRDPASVAAAIKRAKEKEGRIDILVNNAGVCRLGSFLDMSDDDRDFHIDINIKGVWNVTKAVLPEMIARKDGRIVMMSSVTGDMVADPGETAYALTKAAIVGLTKSLAVEYAQSGIRVNAICPGYVRTPMAESIARQSNPEDPESVLTEMAKAIPMRRLADPLEVGELAAFLASDESSYLTGTQNVIDGGSTLPETVSVGI | 5.394 ± 0.017 | 4.09 ± 0.14 | – | – | 4.12 ± 0.29 | 2.91 ± 0.32 | 6.12 ± 0.41 | 10.2 ± 1.1 | 5.35 | 6.28 | 6.25 ± 0.41 | 14.8 ± 0.61
7 | MKENNLNRVIGWSGLLLTSLLSTSALADNIGTSAEELGLSDYRHFVIYPRLDKALKAQKNNDEATAIREFEYIHQQVPDNIPLTLYLAEAYRHFGHDDRARLLLEDQLKRHPGDARLERSLAAIPVEVKSVTTVEELLAQQKACDAAPTLRCRSEVGQNALRLAQLPVARAQLNDATFAASPEGKTLRTDLLQRAIYLKQWSQADTLYNEARQQNTLSAAERRQWFDVLLAGQLDDRILALQSQGIFTDPQSYITYATALAYRGEKARLQHYLIENKPLFTTDAQEKSWLYLLSKYSANPVQALANYTVQFADNRQYVVGATLPVLLKEGQYDAAQKLLATLPANEMLEERYAVSVATRNKAEALRLARLLYQQEPANLTRLDQLTWQLMQNEQSREAADLLLQRYPFQGDARVSQTLMARLASLLESHPYLATPAKVAILSKPLPLAEQRQWQSQLPGIADNCPAIVRLLGDMSPSYDAAAWNRLAKCYRDTLPGVALYAWLQAEQRQPSAWQHRAVAYQAYQVEDYATALAAWQKISLHDMSNEDLLAAANTAQAAGNGAARDRWLQQAEKRGLGSNALYWWLHAQRYIPGQPELALNDLTRSINIAPSANAYVARATIYRQRHNVPAAVSDLRAALELEPNNSNTQAALGYALWDSGDIAQSREMLEPAHKGLPDDPALIRQLAYVNQRLDDMPATQHYARLVIDDIDNQALITPLTPEQNQQRFNFRRLHEEVGRRWTFSFDSSIGLRSGAMSTANNNVGGAAPGKSYRSYGQLEAEYRIGRNMLLEGDLLSVYSRVFADTGENGVMMPVKNPMSGTGLRWKPLRDQIFFIAVEQQLPLNGQNGASDTMLRASASFFNGGKYSDEWHPNGSGWFAQNLYLDAAQYIRQDIQAWTADYRVSWHQKVANGQTIEPYAHVQDNGYRDKGTQGAQLGGVGVRWNIWTGETHYDAWPHKVSLGVEYQHTFKAINQRNGERNNAFLTIGVHW | – | 6.61 ± 0.31 | – | 6.08 ± 0.15 | 5.92 ± 0.22 | – | 6.45 ± 0.45 | 11.31 ± 0.082 | 6.193 ± 0.047 | 12.7 ± 1 | 5.88 ± 0.08 | –
8 | MSIVVKNNIHWVGQRDWEVRDFHGTEYKTLRGSSYNSYLIREEKNVLIDTVDHKFSREFVQNLRNEIDLADIDYIVINHAEEDHAGALTELMAQIPDTPIYCTANAIDSINGHHHHPEWNFNVVKTGDTLDIGNGKQLIFVETPMLHWPDSMMTYLTGDAVLFSNDAFGQHYCDEHLFNDEVDQTELFEQCQRYYANILTPFSRLVTPKITEILGFNLPVDMIATSHGVVWRDNPTQIVELYLKWAADYQEDRITIFYDTMSNNTRMMADAIAQGIAETDPRVAVKIFNVARSDKNEILTNVFRSKGVLVGTSTMNNVMMPKIAGLVEEMTGLRFRNKRASAFGSHGWSGGAVDRLSTRLQDAGFEMSLSLKAKWRPDQDALKLCREHGREIARQWALAPLPQSTVNTVVKEETSATTTADLGPRMQCSVCQWIYDPAKGEPMQDVAPGTPWSEVPDNFLCPECSLGKDVFEELASEAK | 5.32 ± 0.78 | 3.24 | – | – | 1.57 | – | – | – | 2.75 | – | – | 10.1 ± 7.1
9 | MVIGPFINASAVLLGGVLGALLSQRLPERIRVSMTSIFGLASLGIGILLVVKCANLPAMVLATLLGALIGEICLLEKGVNTAVAKAQNLFRHSRKKPAHESFIQNYVAIIVLFCASGTGIFGAMNEGMTGDPSILIAKSFLDFFTAMIFACSLGIAVSVISIPLLIIQLTLAWAAALILPLTTPSMMADFSAVGGLLLLATGLRICGIKMFPVVNMLPALLLAMPLSAAWTAWFA | – | 6.45 | – | – | – | – | – | – | – | 10.8 | – | –

Source: the supplement of paper PMC11246515
